According to article doi:10.64898/2025.12.08.692910 (bioRxiv, 2025):

B2: Helicobacter pylori UreG (enzyme)
chain: MVKIGVCGPVGSGKTALIEALTRHMSKDYDMAVITNDIYTKEDAEFMCKNSVMPRERIIGVETGGCPHTAIREDASMNLEAVEEMHGRFPNLELLLIESGGDNLSATFNPELADFTIFVIDVAEGDKIPRKGGPGITRSDLLVINKIDLAPYVGADLKVMERDSKKMRGEKPFIFTNIRAKEGLDDVIAWIKRNALLED

Columns and labels:
[1] = target: B2; test: crystal structure
[2] = target: the molecule itself; test: crystal structure
[3] = target: T1, Helicobacter pylori UreE, wild-type (residues 1-170) (Helicobacter pylori, UniProt Q09064 1-170); test: pull-down
T1 sequence (looked up): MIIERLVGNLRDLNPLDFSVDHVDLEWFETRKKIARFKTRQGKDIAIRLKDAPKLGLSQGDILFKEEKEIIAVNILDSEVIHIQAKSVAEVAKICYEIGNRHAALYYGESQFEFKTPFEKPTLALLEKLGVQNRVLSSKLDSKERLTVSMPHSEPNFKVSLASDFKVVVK

B1: Helicobacter pylori UreE(1-158), C-terminal truncation variant (domain or fragment, UniProt Q09064 1-158, looked up)
chain: MIIERLVGNLRDLNPLDFSVDHVDLEWFETRKKIARFKTRQGKDIAIRLKDAPKLGLSQGDILFKEEKEIIAVNILDSEVIHIQAKSVAEVAKICYEIGNRHAALYYGESQFEFKTPFEKPTLALLEKLGVQNRVLSSKLDSKERLTVSMPHSEPNFK
- binding result [1]: binds
- binding result [2]: binds

Binder: B2
- binding result [2]: binds

B3: Helicobacter pylori HypA with C-terminal Strep-tag II (HypAstr) (natural protein, UniProt P0A0U4 1-117, looked up)
chain: MHEYSVVSSLIALCEEHAKKNQAHKIERVVVGIGERSAMDKSLFVSAFETFREESLVCKDAILDIVDEKVELECKDCSHVFKPNALDYGVCEKCHSKNVIITQGNEMRLLSLEMLAE
- binding result [3]: binds

B4: Helicobacter pylori UreE(1-148), C-terminal truncation variant (domain or fragment, UniProt Q09064 1-148, looked up)
chain: MIIERLVGNLRDLNPLDFSVDHVDLEWFETRKKIARFKTRQGKDIAIRLKDAPKLGLSQGDILFKEEKEIIAVNILDSEVIHIQAKSVAEVAKICYEIGNRHAALYYGESQFEFKTPFEKPTLALLEKLGVQNRVLSSKLDSKERLTV
- binding result [1]: binds
- binding result [2]: binds
